From the supplement of paper PMC7877785
± gives the uncertainty stated by the source.

Experiment: self-splicing fitness, log relative to wild type (ln ratio); higher = more splicing; Tetrahymena group I intron in knt gene, E. coli kanamycin selection, DiMSum; sequences stand for … in CUCUCU…GGAGGGAAAAGUUAUCAGGCAUGCACCUGGUAGCUAGUCUUUAAACCAAUAGAUUGCAUCGGUUUAAAAGGCAAGACCGUCAAAUUGCGGGAAAGGGGUCAACAGCCGUUCAGUACCAAGUCUCAGGGGAAACUUUGAGAUGGCCUUGCAAAGGGUAUGGUAAUAAGCUGACGGACAUGGUCCUAACCACGCAGCCAAGUCCUAAGUCAACAGAUCUUCUGUUGAUAUGGAUGCAGUUCACAGACUAAAUGUCGGUCGGGGAAGAUGUAUUCUUCUCAUAAGAUAUAGUCGGACCUCUCCUUAAUGGGAGCUAGCGGAUGAAGUGAUGCAACACUGGAGCCGCUGGGAACUAAUUUGUAUGCGAAAGUAUAUUGAUUAGUUUUGGAGUACUCGUGGUCG
How it was run: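 The eight P1ex-region nucleotides of an intron in the knt kanamycin-resistance gene on pET-22b(+) were all randomised and the library put into E. coli BL21(DE3). Six replicate transformations were grown overnight at 37°C or 30°C on LB agar with or without 25 μg/mL kanamycin, together with 100 μg/mL carbenicillin, 50 μM IPTG and 0.2% rhamnose. Colonies were pooled and amplicon-sequenced on an Illumina HiSeq 2500. Fitness from DiMSum is the error-weighted combination of wild-type-normalised replicate fold changes, kanamycin over none.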

Sequence | self-splicing fitness (ln) (30 °C) | self-splicing fitness (ln) (37 °C)
UGCAAGCAAUAUUACGGCAG | -0.827 ± 0.078 | -0.0588 ± 0.12
UGCAAGCAAUAUUACGGGAU | -3.04 ± 0.13 | -2.89 ± 0.15
UGCAAGCAAUAUUACGGGGC | -3.59 ± 0.27 | -2.56 ± 0.24
UGCAAGCAAUAUUACGGUCC | -1.81 ± 0.057 | -1.16 ± 0.084
UGCAAGCAAUAUUACGGUGA | -0.55 ± 0.068 | 0.00833 ± 0.086
UGCAAGCAAUAUUACGUAGG | -3.31 ± 0.21 | -0.277 ± 0.14
UGCAAGCAAUAUUACGUCGA | -1.09 ± 0.082 | -0.989 ± 0.089
UGCAAGCAAUAUUACGUGAG | -3.87 ± 0.21 | -2.72 ± 0.18
UGCAAGCAAUAUUACGUUGU | -4.31 ± 0.24 | -2.78 ± 0.2
UGCCAGCAAUAUUACGAAAC |  | -2.42 ± 0.23
UGCCAGCAAUAUUACGAAGA | -2.87 ± 0.18 | -1.33 ± 0.14
UGCCAGCAAUAUUACGACAG | -1.31 ± 0.1 | -0.406 ± 0.12
UGCCAGCAAUAUUACGACGA | -1.01 ± 0.12 | -1.01 ± 0.12
UGCCAGCAAUAUUACGAGUC | -3.49 ± 0.16 | -1.6 ± 0.16
UGCCAGCAAUAUUACGAUAG | -2.17 ± 0.12 | -1.09 ± 0.12
UGCCAGCAAUAUUACGAUGA | -1.99 ± 0.14 | -0.997 ± 0.12
UGCCAGCAAUAUUACGAUUC | -2.68 ± 0.18 | -2.41 ± 0.3
UGCCAGCAAUAUUACGCUCC | -2.88 ± 0.12 | -1.15 ± 0.14
UGCCAGCAAUAUUACGGAAU | -2.74 ± 0.15 | -1.95 ± 0.11
UGCCAGCAAUAUUACGGCAU | -2.48 ± 0.15 | -3.23 ± 0.26
UGCCAGCAAUAUUACGGCCC | -0.651 ± 0.12 | -0.528 ± 0.17
UGCCAGCAAUAUUACGGCGC | -3.8 ± 0.27 | -3.04 ± 0.23
UGCCAGCAAUAUUACGGUCC | -0.84 ± 0.2 | 0.136 ± 0.2
UGCCAGCAAUAUUACGUGCU | -3.14 ± 0.11 | -1.48 ± 0.1
UGCCAGCAAUAUUACGUUUG | -2.35 ± 0.092 | -0.857 ± 0.12

Sequence | self-splicing fitness (ln) (30 °C) | self-splicing fitness (ln) (37 °C)
UGCGAGCAAUAUUACGAAGA | -3.24 ± 0.37 | -1.97 ± 0.28
UGCGAGCAAUAUUACGACAA | -1.55 ± 0.3 | -0.809 ± 0.2
UGCGAGCAAUAUUACGACAG | -2.55 ± 0.21 | -1.29 ± 0.18
UGCGAGCAAUAUUACGAGCA | -1.98 ± 0.18 | -2.37 ± 0.22
UGCGAGCAAUAUUACGAGUG | -2.85 ± 0.17 | -2.32 ± 0.28
UGCGAGCAAUAUUACGCCGA |  | -1.26 ± 0.4
UGCGAGCAAUAUUACGCGGC | -3.44 ± 0.33 | -3.46 ± 0.46
UGCGAGCAAUAUUACGCUAG | -2.68 ± 0.45 | 
UGCGAGCAAUAUUACGCUCG | -2.91 ± 0.22 | -1.92 ± 0.23
UGCGAGCAAUAUUACGGAAG |  | -2.26 ± 0.34
UGCGAGCAAUAUUACGGAUA | -2.36 ± 0.27 | -2.08 ± 0.36
UGCGAGCAAUAUUACGGAUG | -3.65 ± 0.16 | -2.02 ± 0.14
UGCGAGCAAUAUUACGGCAU | -2.64 ± 0.27 | 
UGCGAGCAAUAUUACGGCGG | -1.21 ± 0.084 | -0.816 ± 0.13
UGCGAGCAAUAUUACGGCUA | 0.388 ± 0.12 | 0.499 ± 0.15
UGCGAGCAAUAUUACGGUAU | -5.17 ± 0.38 | -2.32 ± 0.19
UGCGAGCAAUAUUACGGUUG | -1.51 ± 0.16 | -1.82 ± 0.26
UGCGAGCAAUAUUACGUAGC | -2.36 ± 0.27 | -2.05 ± 0.38
UGCGAGCAAUAUUACGUCGG |  | -1.91 ± 0.26
UGCGAGCAAUAUUACGUUCU | -1.68 ± 0.12 | -2.05 ± 0.14
UGCGAGCAAUAUUACGUUUU | -5.01 ± 0.45 | -3.25 ± 0.24
UGCUAGCAAUAUUACGAAGA |  | -2.09 ± 0.2
UGCUAGCAAUAUUACGAAGU | -2.88 ± 0.3 | -2.51 ± 0.49
UGCUAGCAAUAUUACGACUA | -0.649 ± 0.16 | -0.872 ± 0.14
UGCUAGCAAUAUUACGAGGU | -2.94 ± 0.27 | -3.27 ± 0.39
